PMC9917816, “STS1 and STS2 Phosphatase Inhibitor Baicalein Enhances the Expansion of Hematopoietic and Progenitor Stem Cells and Alleviates 5-Fluorouracil-Induced Myelosuppression” (International Journal of Molecular Sciences, 2023)

Substrate: O=[N+]([O-])c1ccc(OP(=O)(O)O)cc1
Experiment: purified protein
Format: biochemical, Homo sapiens
Conditions: 25 mM HEPES, 50 mM NaCl, 5 mM DTT, 2.5 mM EDTA, pH 7.2, 25 °C
[1] = 20 min, text (b9) says STS2 has lower Km than STS1, against the table

| Protein | Km (10 min) [mM] | kcat (10 min) [s⁻¹] | kcat/Km (10 min) [M⁻¹ s⁻¹] | Km [1] [mM] | kcat [1] [s⁻¹] | kcat/Km [1] [M⁻¹ s⁻¹] |
| --- | --- | --- | --- | --- | --- | --- |
| STS1-HP (STS1 histidine phosphatase domain) (Homo sapiens) (protein) GPQKRCLFVCRHGERMDVVFGKYWLSQCFDAKGRYIRTNLNMPHSLPQRSGGFRDYEKDAPITVFGCMQARLVGEALLESNTIIDHVYCSPSLRCVQTAHNILKGLQQENHLKIRVEPGLFEWTKWVAGSTLPAWIPPSELAAANLSVDTTYRPHIPISKLVVSESYDTYISRSFQVTKEIISECKSKGNNILIVAHASSLEACTCQLQGLSPQNSKDFVQMVRKIPYLGFCSCEELGETGIWQLTDPPILPLTHGPTGGFNWRETLLQE | 3.52 ± 0.44 | 67.7 ± 1.31 | 19500 ± 2100 | – | – | – |
| STS2-HP (STS2 histidine phosphatase domain) (Homo sapiens) (protein) SLQALQATVARKSVLVVRHGERVDQIFGKAWLQQCSTPDGKYYRPDLNFPCSLPRRSRGIKDFENDPPLSSCGIFQSRIAGDALLDSGIRISSVFASPALRCVQTAKLILEELKLEKKIKIRVEPGIFEWTKWEAGKTTPTLMSLEELKEANFNIDTDYRPAFPLSALMPAESYQEYMDRCTASMVQIVNTCPQDTGVILIVSHGSTLDSCTRPLLGLPPRECGDFAQLVRKIPSLGMCFCEENKEEGKWELVNPPVKTLTHGANAAFNWRNWISGN | – | – | – | 5.39 ± 0.52 | 0.27 ± 0.005 | 50.5 ± 4.51 |
